Consider one substance from publication PMC7840605.

Assay [1] addresses SARS-CoV-2 spike (S) protein (SARS-CoV-2) (UniProt P0DTC2).
In assay [2] the target is SARS-CoV-2 S protein (RBD) (SARS-CoV-2) (UniProt P0DTC2). The assay can be described thus: ELISA; competitive inhibition ELISA: 1 μg/ml ACE2 coated in 0.01 M Tris pH 8.8; S (RBD) 1 μg/ml pre-incubated with HP-OVA or unmodified OVA at the indicated concentrations was added; antibody detection, absorbance at 450 nm. On the technique in general: In an ELISA, binding on a coated surface is turned into a signal by an enzyme label.

In assay [3] the target is SARS-CoV-2 spike (S) protein (SARS-CoV-2) (UniProt P0DTC2). The source holds these as a separate data set.
Assay [4] has the same target. The source holds these as a separate data set.

As a reminder, the IC50 is the concentration that inhibits the measured activity by half. In assay [1], “3-hydroxyphthalic anhydride-modified chicken ovalbumin (from UniProt P01012 1-386)” came in with an IC50 against live SARS-CoV-2 in Vero E6 cells (CPE assay); blocks S with ACE2 of 4.78 µM and an IC90 against live SARS-CoV-2 in Vero E6 cells (CPE assay); blocks S with ACE2 of 12.2 µM. The same substance gave an IC50 in assay [2] of 17.9 µM. For the same substance, in assay [3], the IC50 of inhibition of SARS-CoV-2 S pseudovirus entry into 293T/ACE2 cells (luciferase); blocks S with ACE2 was determined as 0.7 µM and the IC50 of inhibition of SARS-CoV-2 S pseudovirus entry into Vero E6 cells (luciferase); blocks S with ACE2 stood at 1.21 µM. In assay [4], this substance came in with an IC50 of inhibition of S-mediated cell-cell fusion of 293T/SARS-CoV-2/EGFP and Huh 7 cells; blocks S with ACE2 of 1.54 µM; an IC50 of inhibition of S-mediated cell-cell fusion of 293T/SARS-CoV-2/EGFP and Vero E6 cells; blocks S with ACE2 of 1.74 µM.
